The target in data set [1] is T1, native CD73, MDA-MB-231 cells (Homo sapiens, UniProt P21589).
T1 construct: native CD73 expressed on human, murine, and cynomolgus monkey cell lines; endogenous in cells; host or cells: MDA-MB-231
T1 sequence (P21589 27-549): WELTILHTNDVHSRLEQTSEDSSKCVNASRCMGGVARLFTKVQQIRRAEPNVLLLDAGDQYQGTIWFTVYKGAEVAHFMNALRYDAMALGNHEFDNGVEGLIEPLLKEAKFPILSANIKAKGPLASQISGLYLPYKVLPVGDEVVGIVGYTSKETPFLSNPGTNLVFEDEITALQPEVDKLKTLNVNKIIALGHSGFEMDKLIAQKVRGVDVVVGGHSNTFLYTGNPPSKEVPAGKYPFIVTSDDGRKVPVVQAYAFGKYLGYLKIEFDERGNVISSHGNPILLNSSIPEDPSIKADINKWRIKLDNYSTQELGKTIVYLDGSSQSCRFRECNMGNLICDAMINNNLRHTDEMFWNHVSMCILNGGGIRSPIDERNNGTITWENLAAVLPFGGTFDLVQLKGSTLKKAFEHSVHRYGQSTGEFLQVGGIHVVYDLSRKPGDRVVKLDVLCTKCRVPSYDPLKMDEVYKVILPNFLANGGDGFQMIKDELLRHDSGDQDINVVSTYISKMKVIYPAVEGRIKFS
The data set can be described thus: Flow cytometry binding to native CD73, MDA-MB-231 cells. As to the method:
Binding of MEDI9447 to native CD73 expressed on human, murine, and cynomolgus monkey cell lines was characterized by flow cytometry. The cells were incubated with various concentrations of MEDI9447 and antibody binding was monitored with and fluorophore-labeled anti-human Fc antibody. A plot of the median fluorescence intensity as a function of the MEDI9447 concentration was fitted nonlinearly using a one-site binding isotherm model to calculate the equilibrium dissociation constant.
The affinity of enhanced anti-CD73 antibodies (in IgG1-TM format) to human, murine, and cynomolgus CD73 was determined by flow cytometry and surface plasmon resonsance (SPR) (Table 13). The enhanced antibodies had pM affinity to cellular and recombinant CD73 from the three species.
All flow cytometry experiments were run at 4C and reagents were prepared in PBS/1% FBS buffer. 10,000 cells were incubated with test antibody in 50 uL volume for 4 hours. Cells were washed twice and incubated in 50 uL goat anti-human IgGFc-AlexaFluor647 conjugate for 15 minutes. Cells were washed, resuspended in buffer supplemented with Dapi, and analyzed on a flow cytometer. […] For the determination of KD values, a plot of the median fluorescence intensity as a function of test antibody concentration was fitted nonlinearly using a one site binding isotherm model.

In data set [2] the test system is 4T1 cells. Put plainly: FabZAP antibody internalization assay, 4T1. Type of data set: cell-based, murine. As to conditions: 4T1, 3 days. As to the method: Internalization of MEDI9447 into cell lines MDA-MB-231 (human mammary carcinoma) and 4T1 (murine mammary carcinoma) was assessed using a human Antibody Internalization Kit that is sold commercially as the FabZAP assay (Advanced Targeting Systems, San Diego Calif.). Serial dilutions of MEDI9447 or negative control antibody R347 were pre-incubated with 40 nM FabZAP reagent (Fab fragment of a polyclonal anti-human IgG antibody conjugated to the cytotoxic protein saporin) and then added to the cell lines. After 3 days in culture, cell proliferation was measured using a luminescent cell viability assay sold commercially as the CELLTITER-GLO® assay (Promega, Madison Wis.). This assay was used to calculate EC50 values and maximum toxicity. […]
Cell proliferation of MDA-MB-231 cells and 4T1 cells treated with serial dilutions of test antibody and FabZAP reagent was measured by CELLTITER-GLO® assay (FIG. 2). The signal from the negative control antibody R347 in the CELLTITER-GLO® assay was subtracted from the signal of MEDI9447 and the EC50 value and maximum toxicity were calculated by fitting the dose-response curve using non-linear regression analysis.
1,000 cells/well were cultured in 96 well plates in RPMI/10% FBS. […] After 3 days incubation at 37C, the cell proliferation was measured using the CELLTITER-GLO® assay (Promega, Madison Wis.).

The target of data set [3] is T2, surface-expressed CD73, NCI-H322 cells (Homo sapiens, UniProt P21589).
T2 construct: In a cell-based assay of surface-expressed CD73; endogenous in cells; host or cells: NCI-H322
T2 sequence (P21589 27-549): T1 sequence (P21589 27-549)
Put plainly: Cell-based inhibition of 5′ ectonucleotidase (CD73-catalyzed hydrolysis of AMP). Conditions: CD73-expressing NSCLC cells, 200 μM AMP, 24 hours. As to the method:
In this study, the functional activity of MEDI9447 was determined in an in vitro assay that measured the CD73-catalyzed hydrolysis of AMP using a human non-small cell carcinoma cell line, NCI-H322. Formulation of MEDI9447 was prepared by diluting its stock solution in serum-free RPMI medium to a final concentration of 1 μM. Formulation of R347 was prepared by diluting its stock solution in RPMI to a final concentration of 1 μM.
NCI-H322 cells were centrifuged for 5 minutes at 1500 rpm. The supernatant was removed and replaced with serum-free RPMI medium. The cell suspension was counted using the VI-CELL (Beckman, Coulter) cell counter. The cells were plated into 96-well plates at a cell density of 10,000 cells per 100 μLs per well. […], of 4× concentrated AMP (200 μM) was added. […] Cellular enzyme inhibition of 5′ ectonucleotidase was measured on a multilabel reader, the Perkin-Elmer Envision Workstation. The samples were analyzed using Prism Software.
The results depicted in FIG. 3 were obtained using CD73-expressing NSCLC cells that were plated into 96-well non-tissue culture treated plates (Falcon 3788) at 10,000 cells per well in 100 μL of RPMI medium without additives. […] CELLTITER-GLO® reagent (Promega) was added 1:1 and cellular CD73 enzyme AMP phosphorylase activity was determined by measuring ATP levels using the Envision luminescence plate reader (Perkin Elmer). […]

Results on one substance are retold here after patent US10864269B2, “Therapeutic combinations comprising anti-CD73 antibodies and uses thereof” (MedImmune Limited, priority 2014, dated 2020).

Consider “MEDI9447: IgG1 with CD730010-derived VL of SEQ ID NO: 68 and VH of SEQ ID NO: 82”, for which, in data set [1] (as measured by flow cytometry, read-out: KD, CD73 on the surface of MB-MDA-231 cells), the Kd (as a rule, the concentration at which binding is half-saturated) is about 0.15 nM. In data set [1] (human, murine and cynomolgus CD73), the “KD values by flow cytometry, fold greater than those determined by SPR” value was 13—126 fold. The substance further had a maximum toxicity in data set [2] of 97%. Besides, the “conversion of adenosine monophosphate to adenosine” value in data set [3] is “reduced in a dose-dependent manner”.
